Assay results: patent publication US20250179144A1 (UNIVERSITY OF MELBOURNE, published 2025)

T1: BTN2A1 ectodomain homodimer, disulfide-linked (C-terminal Cys247, acidic or basic leucine zipper) (human, UniProt Q7KYR7 29-248; Q7KYR7 29-248)
T1 construct: Biotinylated and immobilised on a streptavidin chip in SPR; also called immobilized BTN2A1 homodimer; immobilised BTN2A1 ectodomain homodimer; not shown: linker and acidic leucine zipper; linker and basic leucine zipper
T1 sequence 1: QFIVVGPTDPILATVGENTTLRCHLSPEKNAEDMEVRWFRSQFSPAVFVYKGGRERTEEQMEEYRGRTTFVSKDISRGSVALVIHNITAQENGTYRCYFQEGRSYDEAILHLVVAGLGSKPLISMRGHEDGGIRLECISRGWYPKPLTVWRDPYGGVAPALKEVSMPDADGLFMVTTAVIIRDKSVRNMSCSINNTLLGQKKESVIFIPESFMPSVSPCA
T1 sequence 2: T1 sequence 1

B1: soluble BTN2A1 ectodomain lacking Cys247 (monomeric) (ligand)
chain: QFIVVGPTDPILATVGENTTLRCHLSPEKNAEDMEVRWFRSQFSPAVFVYKGGRERTEEQMEEYRGRTTFVSKDISRGSVALVIHNITAQENGTYRCYFQEGRSYDEAILHLVVAGLGSKPLISMRGHEDGGIRLECISRGWYPKPLTVWRDPYGGVAPALKEVSMPDADGLFMVTTAVIIRDKSVRNMSCSINNTLLGQKKESVIFIPESFMPSVSP
notes: C-terminal biotin ligase (AviTag) and His6 tags; Used as SPR analyte and in crystals; also called monomeric BTN2A1 ectodomain; full-length BTN2A1 ectodomain
B2: soluble BTN3A1 ectodomain (IgV-IgC), homodimer (ligand)
chain: not shown
notes: C-terminal biotin ligase (AviTag) and His6 tags; Analyte or immobilised ligand in SPR; streptavidin-PE tetramer in flow cytometry; also called BTN3A1 ectodomain homodimer; full-length BTN3A1 ectodomain
B3: monomeric BTN3A1 IgV domain (ligand)
chain: not shown

Experiments:
[1] = biological target: T1, BTN2A1 ectodomain homodimer, …; assay: SPR; BTN2A1 ectodomain homodimer immobilised, soluble BTN2A1 ectodomain injected
Experimental: (§1) SPR experiments were conducted at 25° C. on a Biacore T200 instrument (GE Healthcare) using 10 mM HEPES-HCl (pH 7.4), 150 mM NaCl, 3 mM EDTA, and 0.05% Tween 20 buffer. Biotinylated BTN ectodomains were immobilized to 1,500-2,000 resonance units (RU) on a Biacore sensor chip SA pre-immobilized with streptavidin. Soluble BTN molecules or G115 γδTCR were two-fold serially diluted and simultaneously injected over test and control surfaces at a rate of 30 μl/min. After subtraction of data from the control flow cell (BTN1A1) and blank injections, interactions were analyzed using Biacore T200 evaluation software (GE Healthcare), Scrubber (Biologic) and Prism version 9 (GraphPad), and equilibrium dissociation constants were derived at equilibrium.

[2] = biological target: B2; assay: SPR, equilibrium; BTN3A1 homodimer immobilised, soluble monomeric BTN2A1 ectodomain injected
Experimental: as §1

[3] = biological target: T1, BTN2A1 ectodomain homodimer, …; assay: SPR, equilibrium; disulfide-linked BTN2A1 homodimer immobilised, soluble BTN3A1 ectodomain injected
Experimental: as §1

[4] = biological target: B2; assay: SPR, soluble monomeric BTN3A1 IgV domain over immobilised BTN3A1 homodimer
Experimental: SPR experiments were conducted at 25° C. on a Biacore T200 instrument (GE Healthcare) using 10 mM HEPES-HCl (pH 7.4), 150 mM NaCl, 3 mM EDTA, and 0.05% Tween 20 buffer. Biotinylated BTN ectodomains were immobilized to 1,500-2,000 resonance units (RU) on a Biacore sensor chip SA pre-immobilized with streptavidin. Soluble BTN molecules or G115 γδTCR were two-fold serially diluted and simultaneously injected over test and control surfaces at a rate of 30 μl/min.

[5] = biological target: T1, BTN2A1 ectodomain homodimer, …; assay: SPR, equilibrium; BTN2A1 homodimer immobilised, soluble BTN3A1 IgV domain injected
Experimental: as §1

Binder: B1
binding result [1]: no binding
Kd [2]: ~1800 µM

Binder: B2
Kd [3]: 500 µM

Binder: B3
binding result [4]: no binding (tested: 1,590 µM)
Kd [5]: 1100 µM
